Molecular target: KDM2B/FBXL10 (UniProt Q8NHM5)
Test: co-IP, western blot
Conditions: reference: wild type, EGF-treated; sites S374

Question: How did the “binding against the reference” value turn out when “c-Fos (from UniProt P01100) S374A, EGF-treated” was run?
Answer: The value was “stronger”.
